We go through 17 sequences from a protein production outcome set (Wang et al. 2014).
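Further: failed if final PepcDB status was selected cloned or expressed and not failed if soluble or beyond.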

The nature of the series: label from the status in PepcDB records.
Regarding “MSTQKQEQAFFGLVWLARLTVCLLTVGLALAIDSTATERHRADVRAKWQEKVDDLGLRLRATILQNTQTVWGLAANVAVQPDIGEERFQRLASVIFKLAPELLNIGLAPGFVIKHIYPLDGNEAALGLDLQAQSLSRDQMALLLESRRAVFSGPINLVQGGQGLAARIPIFENDTGRVWGVISTILDLDRLYTAIGLDSLPPEVVFALSTTGSGNIDKGLFFGEPDAAWQEPVSTTMAMPGFSWKLYAQPADGWPDHPDSPWLLRSLLGLVTLIIIAGTLWITTLILRDRQMQLRFWGLFELAPFGIALYDAISGELLQANPGFTRILDSKANNIGYFDDVRSLSGDKQRSEPSISNRLASQVRFTGVEGFFPMADGTLQPLMLHGLRLDLQGKESVIWIIVEDISQRKEAERLKSEFISTVSHELRTPLTSISGALSLLTTNAVGELSGKAQQLLKIAQRNSDQLGFLINDLLDIEKLIAGKMDFNVIEFPVSEAITESLENIQNYATEKNITLNAQELSTTTVKADKQRLAQALNNILSNAIKFSPVNGQIRIWTKLHGQGLRIYVQDEGPGIAPEFRERMFQKFSQADSSDRRSKGGTGLGLAITKELMARMEGDVDFTSEAGQGATFWLEVPAA”, the protein production result is “failed”.
Take “MSTRSARIVVVSSRAAAGVYTDDCGPIIAGWLEQHGFSSVQPQVVADGNPVGEALHDAVNAGVDVIITSGGTGISPTDTTPEHTVAVLDYVIPGLADAIRRSGLPKVPTSVLSRGVCGVAGRTLIINLPGSPGGVRDGLGVLADVLDHALEQIAGGDHPR”: the protein production entry is “not failed”.
Turning to “MSTSEDTLRTSPDTFDADSVTSKGAPQEHARQVSGMFGRIARWYDLLNHVLSGGLDLYWRYRLVRQVVPGPTGRVLDLAAGTLDVAREIHRQHPGMRVPALDFCEAMLRAGQPKLVDGVQDVIWPAVADGRRLPLADASVDCVTIAFGIRNIVPRREAFEEMLRVLVPGGRACILEFGTGKTPVWKGLYNFYLNTLLPLVGRCVSGDAGAYRYLADTIMSFPDADALAAEMHDAGFTRVYHLPLTSGIVRLHVGEKPL”, the protein production entry is “failed”.
For the sequence “MSTSKAITLTLFIATTLLAPCNAAANATTKPLFPAILIFGDSTVDTGNNNYPLPTIFRAEHFPYGMDLPDGKANGRFSNGKLISDIIATKLNIKEFIPPFLQPNLSDQDILTGVCFASAGAGYDDLTSLSTQAIRVSEQPNMFKSYIARLKGIVGDKKAMEIINNAFVVVSAGPNDFILNYYEIPSRRLEYPFISGYQDFILKRLENFVRELYSLGVRNVLVGGLPPMGCLPIHMTAKFRNIFRFCLEHHNKDSVLYNEKLQNLLPQIEASLPGSKFLYADVYNPMMEMIQNPSKYGFKETKRGCCGTGFLETSFMCNVFSPVCQNRSEFLFFDSIHPSEATYNVIGNLLDPLIRGKFQA”, the protein production entry is listed as “failed”.
On to “MSTSWRIRIMLTIHAKLVEAMLAQAHKDHPFEICGVIAGPEKSNLPLRLIPMRNAAQSETFFKFDPQEQLQVWREMEARGEEPIVIYHSHTHTPAYPSRTDVQYASQPQSHYVIVPTDPAYGEEIRSFRILDGMVTEERIRMINSYKAEWELSMEAMVALEHHHHHH”, for which the protein production entry was “not failed”.
On to “MSTTGRIHSFESCGTVDGPGIRFIVFLQGCLMRCKYCHNRDTWDTHDGKEVTVEEIIAEAKSYRHFMNASGGGITCSGGEAMLQPEFVRDFFRAAHAEGIHTCLDTNGYIRKHTEVIDEVLDATDLVMLDIKHMKDEIHQDFIGVSNRRTLDFARYLHKIGQKTWIRYVVVPGYTDDPEAAHMLGEFIKDMDNIEKVELLPYHKLGAHKWEALGLEYPLEGVNPPSKETMDEIQSILSQYHSNVKYLEHHHHHH”, for which the protein production entry is on record as “failed”.
As for “MSTTTRISTAERLGRALGRGWRAYARSERRASNWLVSKGVPLAAAAALLWAGKLAVLGLLLYVAFWLALLLVALVFVARGHDTVEWEPPEPEWRHGHAGFGLYTHDEYRIDSHDPSDET”, the protein production result is “failed”.
Under “MSVADVALSPIHRGSAFAVGGFGQSTTTHYSVKSVLVFLSVSGSTMPMLILESDSIAEVKLRIQTCNGFRVRRQKLVFSGRELARNASRVKDYGVTGGSVLHLVLKLYDPLLVTVITTCGKVFQFHVDRRRNVGYLKKRISKEGKGFPEVDDQEILFKGEKLDDNRIIDGICKDGNSVIHLLVKKSVEDTVKREEDTATGKDSLLEPLFLTPM” stands “failed”; under “MSVAETEIPIPAATPSLTDACVHCGFCLSDCPSYRVLGRETDSPRGRVYLMDSLQQGRIELSDTVVEHFDTCLGCLACTSACPSGVQYDQLIEEMRQRIAQEHRRPWPEAIWRKLLFAFLPYPERLRPILRLGQLYQSSGLQNWLNRQPLLQKFPQLAAASALLPPLSPASFQDNWPTLLPALGDRRYRVGLLLGCVQRLFNPEVNAAAIRVLRANGCDVVIPPQQGCCGAVAHHQGEMQQAQDLARAVIRSFEAENLDAILVTASGCGHTLKHYGAILADDPEWCDRAQQLADRVQDVQEFLATVGLTTPLHPLQEQPLVVVYQDACHMLHGQKIRNQPRQLLQQIPGIELREPVDAQLCCGSAGIYNLLQPAIAAELGQQKARSLAETGAQMIASANIGCYVQIRHHLQAQSKDLPVLHPLQIIDRAMNFQNH”, “failed”.
Under “MSVDPMTYEAQFFGFTPQTCMLRIYIAFQDYLFEVMQAVEQVILKKLDGIPDCDISPVQIRKCTEKFLCFMKGHFDNLFSKMEQLFLQLILRIPSNILLPEDKCKETPYSEEDFQHLQKEIEQLQEKYKTELCTKQALLAELEEQKIVQAKLKQTLTFFDELHNVGRDHGTSDFRESLVSLVQNSRKLQNIRDNVEKESKRLKIS” stands “failed”; under “MSVETAQRSEVGVAMARSWLLVPAVGSEVLAAAAASGADSLVIDLEDGLPFAAKDEGRARTAEWLARNAGWVRINDATTPHWQRDLDAIRGLPGVRGLMLSKTESPEQVRDTAEGIPGIPVVALVESAAAIVAADDIARTAPVSRLAFGIGDYCRDTGAGRTPMALAYARSRLVNASRAARIGAPIDGPTLSLDAEAVRDDTRLAREMGMTGKLTLATEQVPVINTALAPDSNDISWAETTIARLGADGSRVTHGGHPPQLARAHDILRRAAHFASRT”, “failed”.
Take “MSVFAKVVELGSFTAAARQLQMSVSSISQTVAKLEDELQVKLLNRSTRSLGLTEAGKIYYQGCRRMLFEAQDVHEQLYAFNNTPIGTLRIGCSSTMAQNVLARITAKMLKEYPGLSVNLVTGIPAPDLIADGLDVVIRVGALQDSSLFSRRLGSMPMVLCAAKSYLAQAGNPEKPADLAGHAWLEYSVRPDNEFVIIAPEGISTRLTPQGRFVTNDPMTLVRWLTAGVGIAYVPLMWAIEEINRGELEILLPSYQSDPRPVYALYTEKDKLPLKVQVCINYLTEYFVDVAKIYQGMHGRGIAR”: the protein production entry is “failed”.
Consider “MSVFTTKVQSIGPEAELFKEEKMVILFGKDAPDALADYCYNIEVQPVTEAITDKQTLVIDEQTYQITAVGEVVLTNLDTLGHITIKFDGATTPELPGTLYVEEKAIPEITVGTTIT”, for which the protein production entry is listed as “failed”.
Consider “MSVGRIHSFETCGTVDGPGIRFIVFLQGCLMRCMYCHNRDTWDTHDGKEVTVAELIEEAKSYRHFMKASGGGITCSGGEAMLQPEFVRDFFRAAQAEGIHTCLDTNGYIRKHTDVIDEVLEASDLVMLDLKQMKDDVHKEFIGVSNTRVLDFARYLHKIGQKTWIRYVIVPGYTDDEESAHLLGNFIKDMDNIEKIELLPYHKLGAHKWEALGHDYPLEGVNPPSKETMEKMVEILSQYHNNVKY”, for which the protein production result is “failed”.
Consider “MSVKAGDVFKYERRFTEEEVFEFANITGDKGRHHVEYDENGRLMVHGLLTASIGTKVGEELHYIARELVSEFIRPVFTGDTITCELTLTNVEQMEGYKKVSIESVYRNQHEKTVLVGTSYGIIRGLEHHHHHH”, for which the protein production result is on record as “not failed”.
Under “MSVKIVHHKNFLGMIKELMKDAQSVLDIGCGVGATLKDFPCPIKIGVDAHGPYLEKARLATSFLPIKYEAQRIGEIFLAKSVDCVSMIDVIEHMEKGVGYEVLAQAERIAVKRVIVFTPRGFFKQKAEDHYGLGGESFQEHRSGWEIEDFTQRGYQVIVFNQFHDQSNLAFVESYGKDAKPMDALLAWKELR” stands “not failed”.
In the case of “MSVKKDWIAPLALLFVSFIWGATFVVVQNAMSFVGPFTFNGIRFLFAGIILLFVQMIFSKKTSKQDIKQSSLAGLTVGFFLCVGYVLQTFGLLYTTSSKAGFLTGLSIVMVPILSFIFLKQKATIFIVIGIAVATAGLYLLTAGDSFQLNIGDILVLGCAVAFAAHILVNGFFSKKISPLLLSTSQVLAVGMFSSICAFLFEDWEKLFSVALWTNASFLFALFLTSLFATSIAFFIQTSAQKHTSPTRVAIIFAMEPVFAALTGVLVANEQLSISAIIGCLCIFLGMVFVELPSKTKKEAQAA”, the protein production entry is reported as “failed”.
